The target in one test is HLA-B*44:05 (Homo sapiens, UniProt P01889, A223V/A65T/A93T/A95T/D201E/D98Y/E176V/E187L/E204Q/E69K/G107R/H137Y/K202T/L105A/L119I/N104T/N87E/Q56L/Q94N/R106L/R155S/R180D/S101N/S121R/S35A/S48T/T118I/V36M/W191S/Y91S). Put plainly: MHC binding assay, UV-ligand exchange ELISA. The note with it: peptide exchange yield, binding to HLA-B*44:05. On the technique in general: In an ELISA, binding on a coated surface is turned into a signal by an enzyme label.

The next test has as its target HLA-B*08:01 (Homo sapiens, UniProt P01889, A93T/A95T/D138N/E176V/E187T/K202T/Q94N/R180D/S35A/V36M/Y33D/Y91F). Put plainly: MHC binding assay, UV-ligand exchange ELISA. To be noted: peptide exchange yield, binding to HLA-B*08:01.
The test system of test [1] is HLA-A*01:01, HLA-A*02:01, HLA-A*03:01, HLA-A*24:02, HLA-B*07:02, HLA-B*08:01 and HLA-B*44:02. Put plainly: HLA alleles the peptides bind to (Table 7). Type of test: binding, human. The note with it: allotype from the group HLA-A*01:01, HLA-A*02:01, HLA-A*03:01, HLA-A*24:02, HLA-B*07:02, HLA-B*08:01, HLA-B*44:02. The source says: However, due to similarities in binding pattern such as the relevant anchoring positions some peptides bind to more than one allele, such an overlap is most likely, but not limited to, HLA-A*01 binding peptides also binding to HLA-B*15, HLA-A*03 binding peptides also binding to HLA-A*11, HLA-B*07 binding peptides also binding to HLA-B*35 and HLA-B*51.

The next test has as its target HLA-A*01:01 (Homo sapiens, UniProt P04439, A114D/A174V/A182V/D101N/D185E/E176A/E190D/L180R/Q94H/R68K/S129P/T187R/V100A/V91M/W191G). As to the kind of experiment: MHC binding assay, UV-ligand exchange ELISA. To be noted: peptide exchange yield, binding to HLA-A*01:01.

The values below come from patent US11957716B2 (Immatics Biotechnologies GmbH, priority 2021, dated 2024).

For “168 (AEGPDHHSL; listed as Homo sapiens) [compound 168]”, in the test with HLA-B*44:05, the Peptide exchange entry is on record as “++++ (75% = ++++)”.
“73 (NQKGLISL; listed as Homo sapiens) [compound 73]”: the Peptide exchange result in the test with HLA-B*08:01 is given as “+++ (≥50% = +++)”. Besides, the “Binders (HLA alleles the peptides according to the invention bind to)” value (“Binders” below) in test [1] is “HLA-B*08:01”.
As to “139 (EEGRIITKW; listed as Homo sapiens) [compound 139]”, in the test with HLA-B*44:05, the Peptide exchange entry is “++++ (75% = ++++)”.
Turning to “181 (FDLNIGSAY; listed as Homo sapiens) [compound 181]”, in the test with HLA-B*44:05, the Peptide exchange result is “++++ (75% = ++++)”.
With “122 (FTQKINSTW; listed as Homo sapiens) [compound 122]”, the Peptide exchange entry with HLA-A*01:01 was “++ (≥20% = ++)”. For the same substance, the “Binders” value in test [1] is recorded as “HLA-A*01:01”.
The like results for “196 (NSENLLVY; listed as Homo sapiens) [compound 196]” were, in that order, “+++ (≥50% = +++)” and “HLA-A*01:01”.
As for “98 (FSEIFQDFL; listed as Homo sapiens) [compound 98]”, the Peptide exchange entry in the test with HLA-A*01:01 was “+++ (≥50% = +++)”. Moreover, in test [1], the “Binders” value is “HLA-A*01:01”.
For the substance “36 (KEIEAQEAA; listed as Homo sapiens) [compound 36]”, the Peptide exchange result with HLA-B*44:05 was “++++ (75% = ++++)”.
Consider “92 (LNFSDVFLY; listed as Homo sapiens) [compound 92]”, for which, in the test with HLA-A*01:01, the Peptide exchange entry is given as “++ (≥20% = ++)”. Further, the “Binders” value in test [1] is given as “HLA-A*01:01”.
For the substance “5 (METADRPEW; listed as Homo sapiens) [compound 5]”, the Peptide exchange result in the test with HLA-B*44:05 is “++++ (75% = ++++)”.
For the substance “83 (EAAPNIMHY; listed as Homo sapiens) [compound 83]”, in the test with HLA-A*01:01, the Peptide exchange result is given as “++ (≥20% = ++)”. For the same substance, the “Binders” value in test [1] was “HLA-A*01:01”.
“135 (SADTAELLL; listed as Homo sapiens) [compound 135]”: the Peptide exchange result in the test with HLA-A*01:01 is on record as “++ (≥20% = ++)”. The “Binders” value in test [1] is “HLA-A*01:01”.
Regarding “39 (RELGVGIAL; listed as Homo sapiens) [compound 39]”, in the test with HLA-B*44:05, the Peptide exchange entry was “++++ (75% = ++++)”.
As for “56 (DVDIHKDLY; listed as Homo sapiens) [compound 56]”, the Peptide exchange entry in the test with HLA-A*01:01 is reported as “++++ (≥75% = ++++)”. For the same substance, the “Binders” value in test [1] was “HLA-A*01:01”.
With “131 (TILAKQNVL; listed as Homo sapiens) [compound 131]”, the Peptide exchange entry in the test with HLA-B*08:01 was “+++ (≥50% = +++)”. For the same substance, in test [1], the “Binders” value is listed as “HLA-B*08:01”.
As to “32 (TAMTTLMAF; listed as Homo sapiens) [compound 32]”, the Peptide exchange entry in the test with HLA-B*08:01 is given as “+++ (≥50% = +++)”. Moreover, the “Binders” value in test [1] is on record as “HLA-B*08:01”.
On to “147 (VEAPHLPSF; listed as Homo sapiens) [compound 147]”, for which, in the test with HLA-B*44:05, the Peptide exchange result was “++++ (75% = ++++)”.
Take “23 (AETKQFWSA; listed as Homo sapiens) [compound 23]”: in the test with HLA-B*44:05, the Peptide exchange result was “++++ (75% = ++++)”.
Consider “141 (REVAGASAL; listed as Homo sapiens) [compound 141]”, for which the Peptide exchange result in the test with HLA-B*44:05 was “+++ (50% = +++)”.
For “84 (KEFAFLEHSL; listed as Homo sapiens) [compound 84]”, the Peptide exchange entry with HLA-B*44:05 was “++++ (75% = ++++)”.
As to “212 (WETRLHNLW; listed as Homo sapiens) [compound 212]”, in the test with HLA-B*44:05, the Peptide exchange result was “++++ (75% = ++++)”.
“65 (NSDLFYLLL; listed as Homo sapiens) [compound 65]”: in the test with HLA-A*01:01, the Peptide exchange entry is given as “++++ (≥75% = ++++)”. Further, the “Binders” value in test [1] is on record as “HLA-A*01:01”.
Consider “68 (TVDKGELLY; listed as Homo sapiens) [compound 68]”, for which the Peptide exchange entry in the test with HLA-A*01:01 is recorded as “++++ (≥75% = ++++)”. In test [1], the “Binders” value was “HLA-A*01:01”.
“136 (YSSEIWDLY; listed as Homo sapiens) [compound 136]”: the Peptide exchange entry with HLA-A*01:01 was “++++ (≥75% = ++++)”. The “Binders” value in test [1] is “HLA-A*01:01”.
For “95 (YAFRNQTL; listed as Homo sapiens) [compound 95]”, the Peptide exchange result with HLA-B*08:01 was “+++ (≥50% = +++)”. Further, in test [1], the “Binders” value is given as “HLA-B*08:01”.
As for “99 (RADEEQASF; listed as Homo sapiens) [compound 99]”, in the test with HLA-A*01:01, the Peptide exchange result was “++ (≥20% = ++)”. Further, the “Binders” value in test [1] was “HLA-A*01:01”.
With “27 (SQAKQITIW; listed as Homo sapiens) [compound 27]”, the Peptide exchange entry with HLA-B*44:05 is “++++ (75% = ++++)”.
For “171 (NVSFEVSLLY; listed as Homo sapiens) [compound 171]”, the Peptide exchange result in the test with HLA-A*01:01 is “++++ (≥75% = ++++)”. The “Binders” value in test [1] was “HLA-A*01:01”.
As to “60 (VSPDEVLALW; listed as Homo sapiens) [compound 60]”, the Peptide exchange entry with HLA-A*01:01 is “++ (≥20% = ++)”. For the same substance, the “Binders” value in test [1] is “HLA-A*01:01”.
The like results for “26 (ETNTIEFIY; listed as Homo sapiens) [compound 26]” were, in that order, “++++ (≥75% = ++++)” and “HLA-A*01:01”.
Regarding “216 (ILRTVLPSL; listed as Homo sapiens) [compound 216]”, the Peptide exchange result with HLA-B*08:01 is given as “+++ (≥50% = +++)”. Further, in test [1], the “Binders” value is recorded as “HLA-B*08:01”.
For the substance “48 (TEMSVSALY; listed as Homo sapiens) [compound 48]”, the Peptide exchange result with HLA-B*44:05 is listed as “++++ (75% = ++++)”.
Turning to “58 (REQLDGATL; listed as Homo sapiens) [compound 58]”, the Peptide exchange result with HLA-B*44:05 is listed as “++++ (75% = ++++)”.
For the substance “54 (ASSPVILLL; listed as Homo sapiens) [compound 54]”, in the test with HLA-A*01:01, the Peptide exchange result is on record as “++ (≥20% = ++)”. Besides, the “Binders” value in test [1] was “HLA-A*01:01”.
Turning to “206 (VEGVHFVQLL; listed as Homo sapiens) [compound 206]”, the Peptide exchange entry in the test with HLA-B*44:05 is recorded as “++++ (75% = ++++)”.
With “71 (LIDSLLLLL; listed as Homo sapiens) [compound 71]”, the Peptide exchange entry with HLA-A*01:01 is reported as “+++ (≥50% = +++)”. The “Binders” value in test [1] was “HLA-A*01:01”.
For “86 (VANDRLSFL; listed as Homo sapiens) [compound 86]”, in the test with HLA-B*08:01, the Peptide exchange result is “+++ (≥50% = +++)”. The “Binders” value in test [1] is listed as “HLA-B*08:01”.
Turning to “11 (TEIGTVIKLF; listed as Homo sapiens) [compound 11]”, the Peptide exchange entry with HLA-B*44:05 is on record as “++++ (75% = ++++)”.
On to “117 (GEAAAARPV; listed as Homo sapiens) [compound 117]”, for which the Peptide exchange entry in the test with HLA-B*44:05 is listed as “+++ (50% = +++)”.
